This is an account of results in article PMC2150586 (The Journal of Cell Biology, 1999).

Experiment [1] addresses T1, MBPFar1 (Far1p residues 133–831 fused to maltose binding protein) (S. cerevisiae, UniProt P21268 133-830).
T1 sequence: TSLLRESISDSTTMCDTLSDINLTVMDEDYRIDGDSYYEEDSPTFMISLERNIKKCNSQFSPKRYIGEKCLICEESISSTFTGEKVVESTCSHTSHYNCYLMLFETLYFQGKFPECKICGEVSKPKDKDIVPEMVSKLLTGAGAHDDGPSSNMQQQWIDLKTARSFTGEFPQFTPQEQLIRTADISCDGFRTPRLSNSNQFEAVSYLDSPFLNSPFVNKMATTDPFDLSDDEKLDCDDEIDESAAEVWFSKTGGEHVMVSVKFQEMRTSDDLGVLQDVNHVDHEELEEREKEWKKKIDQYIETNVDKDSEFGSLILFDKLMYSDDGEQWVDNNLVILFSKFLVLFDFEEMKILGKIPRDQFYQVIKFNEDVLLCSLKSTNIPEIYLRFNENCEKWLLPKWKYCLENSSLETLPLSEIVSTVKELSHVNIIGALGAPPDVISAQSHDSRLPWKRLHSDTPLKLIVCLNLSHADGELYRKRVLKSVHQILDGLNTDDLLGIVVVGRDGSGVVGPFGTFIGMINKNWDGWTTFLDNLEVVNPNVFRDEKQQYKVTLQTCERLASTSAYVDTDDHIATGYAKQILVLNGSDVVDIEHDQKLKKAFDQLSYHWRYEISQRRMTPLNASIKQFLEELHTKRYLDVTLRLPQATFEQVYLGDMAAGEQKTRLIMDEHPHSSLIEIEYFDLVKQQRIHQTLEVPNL
The experiment in a line: […].

Experiment [2] has as its target T2, Cdc24p fused to the GAL4 DNA binding domain (pAS1Cdc24) (S. cerevisiae, UniProt P11433 1-854).
T2 sequence: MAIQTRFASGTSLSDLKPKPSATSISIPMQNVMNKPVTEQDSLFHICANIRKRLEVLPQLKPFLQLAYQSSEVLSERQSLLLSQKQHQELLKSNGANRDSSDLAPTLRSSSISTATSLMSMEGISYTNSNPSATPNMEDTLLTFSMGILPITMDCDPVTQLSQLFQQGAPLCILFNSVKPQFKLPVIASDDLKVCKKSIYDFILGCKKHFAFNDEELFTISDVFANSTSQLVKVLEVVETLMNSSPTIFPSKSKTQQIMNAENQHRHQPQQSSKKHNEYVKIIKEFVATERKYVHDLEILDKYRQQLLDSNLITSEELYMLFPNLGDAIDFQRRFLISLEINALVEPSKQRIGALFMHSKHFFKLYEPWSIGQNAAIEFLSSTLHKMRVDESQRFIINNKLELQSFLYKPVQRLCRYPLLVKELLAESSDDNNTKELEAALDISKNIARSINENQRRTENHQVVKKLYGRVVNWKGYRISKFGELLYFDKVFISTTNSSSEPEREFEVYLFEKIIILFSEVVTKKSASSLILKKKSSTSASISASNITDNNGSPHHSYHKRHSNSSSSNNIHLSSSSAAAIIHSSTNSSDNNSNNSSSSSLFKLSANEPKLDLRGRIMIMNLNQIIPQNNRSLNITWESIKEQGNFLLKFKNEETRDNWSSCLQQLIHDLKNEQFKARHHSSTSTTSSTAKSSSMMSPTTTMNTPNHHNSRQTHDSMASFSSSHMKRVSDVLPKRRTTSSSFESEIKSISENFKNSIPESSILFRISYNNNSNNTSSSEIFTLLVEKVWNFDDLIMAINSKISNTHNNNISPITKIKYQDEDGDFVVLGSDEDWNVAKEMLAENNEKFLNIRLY
Nature of the experiment: two-hybrid.

B1: GSTCdc24 (NH2-terminal 472 amino acids of Cdc24p fused to GST) (domain or fragment)
chain: MAIQTRFASGTSLSDLKPKPSATSISIPMQNVMNKPVTEQDSLFHICANIRKRLEVLPQLKPFLQLAYQSSEVLSERQSLLLSQKQHQELLKSNGANRDSSDLAPTLRSSSISTATSLMSMEGISYTNSNPSATPNMEDTLLTFSMGILPITMDCDPVTQLSQLFQQGAPLCILFNSVKPQFKLPVIASDDLKVCKKSIYDFILGCKKHFAFNDEELFTISDVFANSTSQLVKVLEVVETLMNSSPTIFPSKSKTQQIMNAENQHRHQPQQSSKKHNEYVKIIKEFVATERKYVHDLEILDKYRQQLLDSNLITSEELYMLFPNLGDAIDFQRRFLISLEINALVEPSKQRIGALFMHSKHFFKLYEPWSIGQNAAIEFLSSTLHKMRVDESQRFIINNKLELQSFLYKPVQRLCRYPLLVKELLAESSDDNNTKELEAALDISKNIARSINENQRRTENHQVVKKLYGRVV
For B1, the binding result in experiment [1] is recorded as “binds”.

B2: Ste4p (Gβ) fused to the GAL4 activation domain (pGAD424Ste4) (natural protein)
chain: MAAHQMDSITYSNNVTQQYIQPQSLQDISAVEDEIQNKIEAARQESKQLHAQINKAKHKIQDASLFQMANKVTSLTKNKINLKPNIVLKGHNNKISDFRWSRDSKRILSASQDGFMLIWDSASGLKQNAIPLDSQWVLSCAISPSSTLVASAGLNNNCTIYRVSKENRVAQNVASIFKGHTCYISDIEFTDNAHILTASGDMTCALWDIPKAKRVREYSDHLGDVLALAIPEEPNSENSSNTFASCGSDGYTYIWDSRSPSAVQSFYVNDSDINALRFFKDGMSIVAGSDNGAINMYDLRSDCSIATFSLFRGYEERTPTPTYMAANMEYNTAQSPQTLKSTSSSYLDNQGVVSLDFSASGRLMYSCYTDIGCVVWDVLKGEIVGKLEGHGGRVTGVRSSPDGLAVCTGSWDSTMKIWSPGYQ
For the molecule B2, in experiment [2], the “fold increase in LacZ activity with Gγ overexpressed” value is ~2 fold and the “further fold increase in LacZ activity with Far1p also overexpressed” value is ~3.5 fold.
